Reference: article PMC6897951, “Unusual features of the c-ring of F1FO ATP synthases” (Scientific Reports, 2019)

Target: the molecule itself
Test: crystal structure; in meso crystallisation (monooleoyl lipidic phase) of solubilised cF1FO, 27.4 mg/mL, 0.1 M MES pH 5.8, 1.4 M ammonium sulfate, 22 °C; space group I121; 2.3 Å

B1: c-subunit of the spinach chloroplast F1FO ATP synthase (cF1FO), as the c14-ring (natural protein, Spinacia oleracea (spinach), UniProt P69447 1-81, looked up)
chain: MNPLIAAASVIAAGLAVGLASIGPGVGQGTAAGQAVEGIARQPEAEGKIRGTLLLSLAFMEALTIYGLVVALALLFANPFV
notes: ATP synthase subunit c of the chloroplast FO, Spinacia oleracea; Native protein from leaves; also called c1 subunit; c1 protomer; source: only the c14-ring crystallised; copies: 14
stoichiometry N: 14
